Measured values published in article PMC6545883.

Test system: NC(=O)c1ccc[n+]([C@@H]2O[C@H](COP(=O)(O)OP(=O)(O)OC[C@H]3O[C@@H](n4cnc5c(N)ncnc54)[C@H](OP(=O)(O)O)[C@@H]3O)[C@@H](O)[C@H]2O)c1
Experiment: purified protein
Settings: varied: cofactor

PtmO8 (Streptomyces platensis)
Km: (1.11 ± 0.11) × 10^3 µM
Vmax: 3.7 µM/min
kcat: 110 s⁻¹
kcat/Km: 100000 M⁻¹ s⁻¹
